Primed or numbered codes have the meaning given here. Ends that are not written are not given here. FITC′ = not defined here
B6: FITC-labeled RA peptide RAKLDEESILKQK-FITC (peptide)
peptide: RAKLDEESILKQK-{FITC′}
B10: RA peptide (N-terminal arginine, penultimate alanine; rest of sequence not given) (peptide)
peptide: RAKLDEESILKQK-{FITC′}

Tests used:
[1] = target: T1, KA peptide KAKLDEESILKQK (XAKLDEESILKQK, X = K); test: BLI heatmap, single-point screen
T1 construct: Biolayer interferometry single-point screen of UBR-box homologs
T1 peptide: KAKLDEESILKQK

[2] = target: B6; test: fluorescence polarization titration with increasing concentration of UBR protein
[3] = target: B10; test: fluorescence polarization
[4] = target: T2, VA peptide VAKLDEESILKQK (XAKLDEESILKQK, X = V); test: biolayer interferometry, response against 1/kdis
T2 construct: Immobilized on the biolayer interferometry sensor
T2 peptide: VAKLDEESILKQK

[5] = target: T3, IA peptide IAKLDEESILKQK (XAKLDEESILKQK, X = I); test: biolayer interferometry, response against 1/kdis
T3 construct: Immobilized on the biolayer interferometry sensor
T3 peptide: IAKLDEESILKQK

MA = target: T4, MA; test: biolayer interferometry, response against 1/kdis
T4 chain: MAKLDEESILKQK

[6] = target: T5, WA peptide (N-terminal tryptophan, penultimate alanine; rest of sequence not given); test: binder-on-chip single-molecule assay; design: unit not given here
T5 construct: they may differ; also called tryptophan peptide

[7] = target: T6, YA peptide (N-terminal tyrosine, penultimate alanine; rest of sequence not given); test: binder-on-chip single-molecule assay; design: unit not given here
T6 construct: they may differ; also called tyrosine peptide

[8] = target: LF peptide (N-terminal LF; rest of sequence not given); test: binder-on-chip single-molecule assay; design: unit not given here
[9] = target: T7, FA peptide (N-terminal phenylalanine, penultimate alanine; rest of sequence not given); test: binder-on-chip single-molecule assay; design: unit not given here
T7 construct: they may differ; Dye- or FITC-labelled in some assays; also called phenylalanine peptide; N-terminal FA peptide

[10] = target: T8, LA peptide LAKLDEESILKQK (XAKLDEESILKQK, X = L); test: biolayer interferometry as in Example 12
T8 construct: Immobilized on the biolayer interferometry sensor
T8 peptide: LAKLDEESILKQK

[11] = target: T9, F peptide FAKLDEESILKQK (XAKLDEESILKQK, X = F); test: biolayer interferometry as in Example 12
T9 construct: Immobilized on the biolayer interferometry sensor
T9 peptide: FAKLDEESILKQK

[12] = target: T2, VA peptide VAKLDEESILKQK …; test: biolayer interferometry as in Example 12
[13] = target: T3, IA peptide IAKLDEESILKQK …; test: biolayer interferometry as in Example 12
[14] = target: T8, LA peptide LAKLDEESILKQK …; test: biolayer interferometry as in Example 12
[15] = target: T9, F peptide FAKLDEESILKQK (XAKLDEESILKQK, …); test: biolayer interferometry as in Example 12
[16] = target: T2, VA peptide VAKLDEESILKQK …; test: biolayer interferometry as in Example 12
[17] = target: T3, IA peptide IAKLDEESILKQK …; test: biolayer interferometry as in Example 12
[18] = target: T1, KA peptide KAKLDEESILKQK …; test: biolayer interferometry single-point screen, 30 C
[19] = target: T10, RA peptide RAKLDEESILKQK (XAKLDEESILKQK, X = R); test: biolayer interferometry single-point screen, 30 C
T10 construct: Biolayer interferometry single-point screen of UBR-box homologs
T10 peptide: RAKLDEESILKQK

[20] = target: T11, Kluyveromyces lactis UBR-box domain (PS528) (Kluyveromyces lactis, UniProt O60014 101-182); test: fluorescence polarization titration with increasing concentration of UBR protein
T11 construct: UBR-streptavidin complex in fluorescence polarization
T11 sequence: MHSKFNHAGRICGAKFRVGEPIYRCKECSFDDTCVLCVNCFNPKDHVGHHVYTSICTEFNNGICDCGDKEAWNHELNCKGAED

[21] = target: T8, LA peptide LAKLDEESILKQK …; test: biolayer interferometry as in Example 12
[22] = target: T9, F peptide FAKLDEESILKQK (XAKLDEESILKQK, …); test: biolayer interferometry as in Example 12
[23] = target: T2, VA peptide VAKLDEESILKQK …; test: biolayer interferometry as in Example 12
[24] = target: T3, IA peptide IAKLDEESILKQK …; test: biolayer interferometry as in Example 12
[25] = target: T8, LA peptide LAKLDEESILKQK …; test: BLI heatmap
[26] = target: T9, F peptide FAKLDEESILKQK (XAKLDEESILKQK, …); test: BLI heatmap
[27] = target: T12, Y peptide YAKLDEESILKQK (XAKLDEESILKQK, X = Y); test: BLI heatmap
T12 construct: Immobilized on the biolayer interferometry sensor
T12 peptide: YAKLDEESILKQK

[28] = target: T13, FITC-labeled LA peptide LAKLDEESILKQK-FITC; test: fluorescence polarization, single point
T13 peptide: LAKLDEESILKQK-{FITC′}

[29] = target: T14, FITC-labeled IA peptide IAKLDEESILKQK-FITC; test: fluorescence polarization, single point
T14 peptide: IAKLDEESILKQK-{FITC′}

[30] = target: T15, FITC-labeled FA peptide FAKLDEESILKQK-FITC; test: fluorescence polarization, single point
T15 peptide: FAKLDEESILKQK-{FITC′}

[31] = target: T16, FITC-labeled VA peptide VAKLDEESILKQK-FITC; test: fluorescence polarization, single point
T16 peptide: VAKLDEESILKQK-{FITC′}

[32] = target: T17, FITC-labeled YA peptide YAKLDEESILKQK-FITC; test: fluorescence polarization, single point
T17 peptide: YAKLDEESILKQK-{FITC′}

[33] = target: T8, LA peptide LAKLDEESILKQK …; test: biolayer interferometry as in Example 12
[34] = target: T9, F peptide FAKLDEESILKQK (XAKLDEESILKQK, …); test: biolayer interferometry as in Example 12
[35] = target: T2, VA peptide VAKLDEESILKQK …; test: biolayer interferometry as in Example 12
[36] = target: T3, IA peptide IAKLDEESILKQK …; test: biolayer interferometry as in Example 12
IF = target: T18, IF; test: 3-binder dynamic sequencing of [..]; binder assigned by the binding preference in Table 1
T18 construct: also called IFAGK
T18 chain: IFAGK

LI = target: T19, LI; test: as above
T19 construct: also called LIFAGK
T19 chain: LIFAGK

[37] = target: T11, Kluyveromyces lactis UBR-box domain …; test: fluorescence polarization
[38] = target: T20, ClpS from Thermosynochoccus elongatus (teClpS) (Thermosynechococcus elongatus, UniProt Q8DJY3 6-94); test: biolayer interferometry
T20 construct: Dye-labelled or streptavidin-complexed depending on the assay; also called Thermosynechococcus elongatus ClpS
T20 sequence: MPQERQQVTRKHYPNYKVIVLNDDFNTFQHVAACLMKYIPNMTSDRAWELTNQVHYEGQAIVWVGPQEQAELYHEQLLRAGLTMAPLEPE

B1: Kluyveromyces marxianus UBR1 (PS621) (other)
chain: MHSKFSHAGRICGAKFKVGEPIYRCKECSFDDTCVLCVNCFNPKDHTGHHVYTTICTEFNNGICDCGDKEAWNHTLFCKAEEG
notes: UBR-streptavidin complex in fluorescence polarization
[1]
  binding result: binds
[2]
  Kd: 420 nM
[3]
  Kd: 321 nM

B2: Agrobacterium tumifaciens ClpS1 (atClpS1) (other)
chain: MIAEPICMQGEGDGEDGGTNRGTSVITRVKPKTKRPNLYRVLLLNDDYTPMEFVIHILERFFQKDREAATRIMLHVHQHGVGECGVFTYEVAETKVSQVMDFARQHQHPLQCVMEKK
notes: also called A. tumefaciens ClpS1; atClpS1 (WT)
[4]
  binding result: no binding
[5]
  binding result: no binding
MA
  binding result: no binding
[6]
  Mean pulse width: 0.39
  Median PW: 0.24
[7]
  Mean pulse width: 0.77
  Median PW: 0.4
[8]
  Mean pulse width: 0.3
  Median PW: 0.18
[9]
  Mean pulse width: 0.66
  Median PW: 0.36

B3: PS551 (other)
chain: MPSAAPAKPKTKRQSRTQGMPPYNVVLLDDDDHTYGYVIEMLNKVFGHPPEKGFELATEVDKNGRVIVMTTNLEVAELKRDEVHAFGPDPLMPRSKGSMSAVVERAG
[10]
  binding result: binds
[11]
  binding result: no binding
[12]
  binding result: binds
[13]
  binding result: binds

B4: PS558 (other)
chain: MTATTADPDRTTAEKTTKKARRSGQPKRQPRYHVILWNDNDHTYQYVVAMLQQLFGHPATTGLKLATEVDRTGRAVILTTTREHAELKRDQIHAFGADRLLARSKGAMSASIEPEAE
[14]
  binding result: binds
[15]
  binding result: no binding
[16]
  binding result: binds
[17]
  binding result: binds

B5: Vombatus ursinus UBR-box domain (PS522) (other)
chain: MLCGKVFKSGETTYSCRDCAIDPTCVLCMNCFQSSVHKNHRYKMHTSTGGGFCDCGDTEAWKTGPFCTIHEP
[18]
  binding result: binds
[19]
  binding result: binds

## B6
[20]
  Kd: 460 nM

B7: PS545 (other)
chain: MSEPMTLPAIPQPRLKERTQRQPPYNVILLNDDDHSYEYVIAMLQVLFGYPREKGYQMAKEVDSTGRVILLTTTREHAELKQEQIHAFGPDPLMARCQGSMTAVIEPAV
[21]
  binding result: binds
[22]
  binding result: no binding
[23]
  binding result: binds
[24]
  binding result: binds

B8: PS371 (other)
chain: MATETIERPRTRDPGSGLGGHWLVIVLNDDHNTFDHVAKTLARVIPGVTVDDGYRFADQIHQRGQAIVWRGPKEPAEHYWEQLQDAGLSMAPLERH
[25]
  binding result: binds
[26]
  binding result: binds
[27]
  binding result: binds
[28]
  binding result: binds
[29]
  binding result: no binding
[30]
  binding result: binds
[31]
  binding result: no binding
[32]
  binding result: binds

B9: Planctomycetia bacterium ClpS homolog (PS557) (other)
chain: MPTAASATESAIEDTPAPARPEVDGRTKPKRQPRYHVVLWNDDDHTYQYVVVMLQSLFGHPPERGYRLAKEVDTQGRVIVLTTTREHAELKRDQIHAFGYDRLLARSKGSMKASIEAEE
[33]
  binding result: binds
[34]
  binding result: no binding
[35]
  binding result: binds
[36]
  binding result: binds
IF
  binding result: binds
LI
  binding result: binds

## B10
[37]
  Kd: 403 nM

## IRKLDEESILKQK (Biolayer interferometry) [IR peptide IRKLDEESILKQK (XXKLDEESILKQK, XX = IR)]
[38]
  binding result: binds

From patent publication US20210364527A1 (QUANTUM SI, published 2021)
